Experimental data taken from patent publication US20220073608A1 (JIANGSU HUAIYU PHARMACEUTICAL, published 2022).
Substitutions are numbered along the chain they refer to.

T1: human SEMA4D, full length, on CHO-K1 cells (CHO-K1 hSEMA4D) (human, UniProt Q92854 22-862)
T1 construct: whole, on cells; also called human SEMA4D recombinant cells
T1 sequence (looked up): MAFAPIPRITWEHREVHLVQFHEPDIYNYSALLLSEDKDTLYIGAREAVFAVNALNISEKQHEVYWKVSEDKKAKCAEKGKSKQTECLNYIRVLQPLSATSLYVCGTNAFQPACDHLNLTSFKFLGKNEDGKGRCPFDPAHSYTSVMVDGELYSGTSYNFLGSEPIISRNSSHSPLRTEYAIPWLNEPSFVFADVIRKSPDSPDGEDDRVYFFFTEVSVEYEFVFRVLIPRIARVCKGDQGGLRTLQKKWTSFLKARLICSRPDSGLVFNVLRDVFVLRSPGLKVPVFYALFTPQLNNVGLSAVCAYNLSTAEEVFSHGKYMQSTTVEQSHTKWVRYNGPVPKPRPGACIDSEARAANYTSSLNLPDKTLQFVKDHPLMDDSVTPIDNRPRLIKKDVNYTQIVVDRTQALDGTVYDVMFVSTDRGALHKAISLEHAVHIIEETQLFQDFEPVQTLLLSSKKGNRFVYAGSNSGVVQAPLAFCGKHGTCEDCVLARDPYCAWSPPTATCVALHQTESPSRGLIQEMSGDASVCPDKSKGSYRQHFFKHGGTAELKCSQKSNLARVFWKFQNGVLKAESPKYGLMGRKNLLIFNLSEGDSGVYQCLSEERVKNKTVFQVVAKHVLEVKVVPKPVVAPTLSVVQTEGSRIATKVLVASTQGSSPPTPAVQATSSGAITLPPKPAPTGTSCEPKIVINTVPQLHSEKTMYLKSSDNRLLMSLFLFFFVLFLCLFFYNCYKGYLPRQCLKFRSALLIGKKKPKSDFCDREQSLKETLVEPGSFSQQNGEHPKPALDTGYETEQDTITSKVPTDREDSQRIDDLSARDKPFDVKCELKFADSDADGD

T2: biotinylated hSEMA4D ECD-His (human, UniProt Q92854 22-734, biotinylated with Biotin-X-X-NHS at a molar ratio of 8:1; sites not stated)
T2 construct: also called biotinylated immunogen; not shown: His tag of the pCP vector
T2 sequence: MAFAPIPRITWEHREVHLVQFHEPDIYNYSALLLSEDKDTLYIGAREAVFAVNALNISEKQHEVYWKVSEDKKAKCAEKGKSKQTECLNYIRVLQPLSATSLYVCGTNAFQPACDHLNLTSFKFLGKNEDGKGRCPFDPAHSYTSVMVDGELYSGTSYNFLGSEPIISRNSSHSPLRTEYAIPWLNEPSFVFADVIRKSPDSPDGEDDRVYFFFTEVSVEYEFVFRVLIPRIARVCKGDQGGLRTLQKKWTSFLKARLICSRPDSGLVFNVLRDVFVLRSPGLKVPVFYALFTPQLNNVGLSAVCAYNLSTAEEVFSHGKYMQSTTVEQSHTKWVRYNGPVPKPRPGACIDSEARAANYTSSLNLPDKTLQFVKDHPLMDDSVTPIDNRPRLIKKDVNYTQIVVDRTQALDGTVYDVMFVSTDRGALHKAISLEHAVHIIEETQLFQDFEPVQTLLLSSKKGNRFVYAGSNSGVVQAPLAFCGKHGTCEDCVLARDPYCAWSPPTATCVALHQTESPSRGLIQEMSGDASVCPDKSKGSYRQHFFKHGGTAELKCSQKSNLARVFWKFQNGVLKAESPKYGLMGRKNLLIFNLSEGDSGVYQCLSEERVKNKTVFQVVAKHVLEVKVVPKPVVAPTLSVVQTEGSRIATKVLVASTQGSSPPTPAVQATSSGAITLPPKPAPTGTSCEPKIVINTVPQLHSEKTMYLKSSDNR

B1: 32C8F10 (antibody, V domains shown)
VH: EVQLQQSGAELVRPGASVKLSCTASGFNIKDEYIHWVKQRPEQGLEWIGWIDPANGHTEYASRFQAKATITADTSSNTAYLQLSSLTSEDTAVYYCTTGDYDGFAYWGQGTLVTVST
VL: QIVLTQSPAIMSASPGEKVTISCSARSSVSYMYWYQQKPGSSPKPWIYRTSNLASGVPARFSGSGSGTSYSLTISSMEAEDAATYYCQHYHTYPYTFGGGTKLEIK
notes: Mouse monoclonal antibody purified from hybridoma supernatant on protein A
B2: 31G10C5 (antibody, V domains shown)
VH: B1 VH with E32D, T58I, R63N, A105T
VL: B1 VL
notes: as for B1
B3: 31C11G2 (antibody, V domains shown)
VH: B1 VH with A105V
VL: B1 VL with S22F
notes: as for B1
B4: 42B7G2 (antibody, V domains shown)
VH: QVQLQQSGAELARPGASVKLSCKASGYTFTDYGISWVKQRTGQGLEWIGEIYLRNDNSYYNEKFKGKATLTADKSSNTAYMELRSLTSEDSAVYFCARWGDHGNNYEDAMDYWGQGTSVTVSS
VL: DIVLTQSPASLAMSLGKRATISCRASESVSIIGSNLIHWYQQKPGQPPKLLIYHASNLETGVPARFSGSGSRTDFTLTIDPVEEDDVAIYYCLQSRKVPYTFGGGTKLEIK
notes: as for B1
B5: 37F11F9 (antibody, V domains shown)
VH: EVQLQQSGPVLVKPGASVKMSCKASGYTFTDYYMNWVKQSHGKSLEWIGLINPYSGGSTFNQKFKAKATLTVDKSSSSAYMDLNSLTSEDSAVYYCARVGDGYYGVTHGMDYWGQGTSVTVSS
VL: DIVMTPSQKFMSTTVGDRVSITCKASQNVGTAVAWYQQKPGQSPTILIYSASNRYTGVPDRFTGSGSGTDFTLTISNMKSEDLADYFCQQYYIYPFTFAAGTKLELK
notes: as for B1
B6: 37C4F7 (antibody, V domains shown)
VH: EFQLQQSGPEVVKPGASVKISCKASGYSFTDYNMNWMKQSKGKSLEWIGVINPNYGTTTYNQNFKGKATLTVDQSSSTAYMQLNSLTSEDSAVYYCARDMYYVYAYYTMDYWGQGTSVTVSS
VL: DVVMTQTPLSLPVSLGDQASISCRSSQSLVHSNGHTYLHWYLQRPGQSPTLLIYKVSNRFSGVPDRFSGSGSGTDFTLKISRVEAEDLGVYFCSQGTHVPWTFGGGTKLEIK
notes: as for B1
B7: 38H2E3 (antibody, V domains shown)
VH: B6 VH with N52S, N54D, G66D, R98K, Q114H
VL: B6 VL with F67V, W101R
notes: as for B1

Tests used:
[1] = target: T1, human SEMA4D, full length, on CHO-K1 …; assay: FACS, CHO-K1 hSEMA4D cells; Ab 66.7 nM
Procedure: (§1) The medium was aspirated, the cells were washed once with PBS buffer (purchased from Invitrogen), and then treated with cell dissociation fluid (TrypLE™ Express Enzyme, purchased from Life technology), and the cells were collected. After the cells counted, the cells were washed once with PBS phosphate buffer, and diluted to 3×10⁶ cells per milliliter, and added to the 96-well FACS reaction plate as 100 μL per well. 2% (w/w) fetal calf serum was added to PBS phosphate buffer as FACS buffer, with which the cells were washed once by centrifugation at 2000 rpm 4° C. 100 μL of diluted and purified leading antibodies was added to each well and the plate was incubated for 1 hour on ice. […] Cells were washed 2 times by centrifugation with FACS buffer. The cells were suspended with 200 μL of FACS buffer, and FACS (FACS Verse, purchased from BD) was used to detect and analyze the results.

[2] = target: T2, biotinylated hSEMA4D ECD-His; assay: FACS, blocking of biotinylated hSEMA4D ECD-His binding to 293F hPlexin B1 cells; Ab 0.00427 nM
Procedure: as §1, with “1×10⁶” for “3×10⁶”, “C. Meanwhile, the purified leading antibody and biotinylated hSEMA4D ECD-His were mixed and incubated on ice for 30 minutes. Then” for “C.”, “the mixture” for “diluted and purified leading antibodies”, “incubated on ice” for “incubated”, “hour.” for “hour on ice.”, “results. The results are shown in FIGS. 11A-11B and Tables 20-21.” for “results.”

[3] = target: T2, biotinylated hSEMA4D ECD-His; assay: FACS, blocking of biotinylated hSEMA4D ECD-His binding to 293F hPlexin B1 cells; Ab 0.107 nM
Procedure: as §1, with “1×10⁶” for “3×10⁶”, “C. Meanwhile, the purified leading antibody and biotinylated hSEMA4D ECD-His were mixed and incubated on ice for 30 minutes. Then” for “C.”, “the mixture” for “diluted and purified leading antibodies”, “incubated on ice” for “incubated”, “hour.” for “hour on ice.”, “results. The results are shown in FIGS. 11A-11B and Tables 20-21.” for “results.”

[4] = target: T2, biotinylated hSEMA4D ECD-His; assay: FACS, blocking of biotinylated hSEMA4D ECD-His binding to 293F hPlexin B1 cells; Ab 2.67 nM
Procedure: as §1, with “1×10⁶” for “3×10⁶”, “C. Meanwhile, the purified leading antibody and biotinylated hSEMA4D ECD-His were mixed and incubated on ice for 30 minutes. Then” for “C.”, “the mixture” for “diluted and purified leading antibodies”, “incubated on ice” for “incubated”, “hour.” for “hour on ice.”, “results. The results are shown in FIGS. 11A-11B and Tables 20-21.” for “results.”

[5] = target: T2, biotinylated hSEMA4D ECD-His; assay: FACS, blocking of biotinylated hSEMA4D ECD-His binding to 293F hPlexin B1 cells; Ab 0.0213 nM
Procedure: as §1, with “1×10⁶” for “3×10⁶”, “C. Meanwhile, the purified leading antibody and biotinylated hSEMA4D ECD-His were mixed and incubated on ice for 30 minutes. Then” for “C.”, “the mixture” for “diluted and purified leading antibodies”, “incubated on ice” for “incubated”, “hour.” for “hour on ice.”, “results. The results are shown in FIGS. 11A-11B and Tables 20-21.” for “results.”

Binder	MFI [1]	MFI (residual ligand binding) [2]	MFI (residual ligand binding) [3]	MFI (residual ligand binding) [4]	MFI (residual ligand binding) [5]
B1	8760	471	454	333	463
B2	7410	470	460	334	466
B3	6750	544	530	415	547
B4	4120	–	–	–	–
B5	4110	–	–	–	–
B6	4740	–	–	–	–
B7	5470	–	–	–	–
